In patent US20230365662A1:
“And” between values parts separate entries of the source, which are not always exact repeats. Equal values may be shown once.

Each binder was assayed against HRgpA-6H (Porphyromonas gingivalis) (UniProt P28784) (assay: ELISA on coated HRgpA-6H).
UniProt P28784, sequence (P28784 228-991 limits assumed): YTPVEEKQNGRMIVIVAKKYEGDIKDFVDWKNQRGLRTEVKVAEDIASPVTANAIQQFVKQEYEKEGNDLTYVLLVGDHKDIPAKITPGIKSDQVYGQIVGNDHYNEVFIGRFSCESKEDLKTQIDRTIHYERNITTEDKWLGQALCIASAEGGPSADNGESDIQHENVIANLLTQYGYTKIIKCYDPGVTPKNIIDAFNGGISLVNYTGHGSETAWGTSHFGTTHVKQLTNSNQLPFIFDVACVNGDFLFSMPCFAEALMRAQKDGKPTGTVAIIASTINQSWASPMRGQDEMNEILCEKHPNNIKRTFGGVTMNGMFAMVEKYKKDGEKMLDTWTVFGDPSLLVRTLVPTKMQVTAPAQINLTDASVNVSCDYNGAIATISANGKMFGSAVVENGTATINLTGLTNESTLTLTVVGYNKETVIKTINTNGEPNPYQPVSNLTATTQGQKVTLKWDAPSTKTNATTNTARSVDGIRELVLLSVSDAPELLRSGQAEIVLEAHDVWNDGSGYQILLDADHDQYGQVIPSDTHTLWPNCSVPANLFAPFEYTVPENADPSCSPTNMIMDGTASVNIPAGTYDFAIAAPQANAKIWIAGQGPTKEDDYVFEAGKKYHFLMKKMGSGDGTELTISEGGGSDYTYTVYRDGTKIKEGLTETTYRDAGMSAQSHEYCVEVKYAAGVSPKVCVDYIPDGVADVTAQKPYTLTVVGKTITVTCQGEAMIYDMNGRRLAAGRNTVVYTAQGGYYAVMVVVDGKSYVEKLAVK

Binder | OD450nm | Ratio OD(Variant)/OD(WT)
KB001 mouse Fab FASEBA VH G55N (Fab, V domains shown) VH: EVQLKQSGPGLVAPSQSLSITCTVSGFSLSIYSVHWVRQPPGKGLEWLGMIWGGNSSDYNSALKSRLSISKDNSKSQVFLKMNSLQTDDTAMYYCARNGNFYAMDYWGQGTSVTVSS VL: QIVLTQSPAIMSASLGERVTMTCTASSSVSSSFLHWYQQKPGSSPQLWIYSTSNLASGVPARFSGSGSGTSYSLTISSMEAEDAATYYCHQYHHSPYIYTFGGGTKLEIK | 0.652 | 0.81
KB001 mouse Fab FASEBA VH S56P (Fab, V domains shown) VH: EVQLKQSGPGLVAPSQSLSITCTVSGFSLSIYSVHWVRQPPGKGLEWLGMIWGGGPSDYNSALKSRLSISKDNSKSQVFLKMNSLQTDDTAMYYCARNGNFYAMDYWGQGTSVTVSS VL: QIVLTQSPAIMSASLGERVTMTCTASSSVSSSFLHWYQQKPGSSPQLWIYSTSNLASGVPARFSGSGSGTSYSLTISSMEAEDAATYYCHQYHHSPYIYTFGGGTKLEIK | 0.855 and 0.788 and 0.824 | 0.972 and 0.896 and 0.937
KB001 mouse Fab FASEBA VH S56T (Fab, V domains shown) VH: EVQLKQSGPGLVAPSQSLSITCTVSGFSLSIYSVHWVRQPPGKGLEWLGMIWGGGTSDYNSALKSRLSISKDNSKSQVFLKMNSLQTDDTAMYYCARNGNFYAMDYWGQGTSVTVSS VL: QIVLTQSPAIMSASLGERVTMTCTASSSVSSSFLHWYQQKPGSSPQLWIYSTSNLASGVPARFSGSGSGTSYSLTISSMEAEDAATYYCHQYHHSPYIYTFGGGTKLEIK | 0.838 and 0.844 and 0.853 | 0.953 and 0.96 and 0.97
KB001 mouse Fab FASEBA VH S56E (Fab, V domains shown) VH: EVQLKQSGPGLVAPSQSLSITCTVSGFSLSIYSVHWVRQPPGKGLEWLGMIWGGGESDYNSALKSRLSISKDNSKSQVFLKMNSLQTDDTAMYYCARNGNFYAMDYWGQGTSVTVSS VL: QIVLTQSPAIMSASLGERVTMTCTASSSVSSSFLHWYQQKPGSSPQLWIYSTSNLASGVPARFSGSGSGTSYSLTISSMEAEDAATYYCHQYHHSPYIYTFGGGTKLEIK | 0.772 and 0.713 | 0.878 and 0.811
KB001 mouse Fab FASEBA VH S56N (Fab, V domains shown) VH: EVQLKQSGPGLVAPSQSLSITCTVSGFSLSIYSVHWVRQPPGKGLEWLGMIWGGGNSDYNSALKSRLSISKDNSKSQVFLKMNSLQTDDTAMYYCARNGNFYAMDYWGQGTSVTVSS VL: QIVLTQSPAIMSASLGERVTMTCTASSSVSSSFLHWYQQKPGSSPQLWIYSTSNLASGVPARFSGSGSGTSYSLTISSMEAEDAATYYCHQYHHSPYIYTFGGGTKLEIK | 0.759 and 0.743 | 0.863 and 0.845
KB001 mouse Fab FASEBA VH S56L (Fab, V domains shown) VH: EVQLKQSGPGLVAPSQSLSITCTVSGFSLSIYSVHWVRQPPGKGLEWLGMIWGGGLSDYNSALKSRLSISKDNSKSQVFLKMNSLQTDDTAMYYCARNGNFYAMDYWGQGTSVTVSS VL: QIVLTQSPAIMSASLGERVTMTCTASSSVSSSFLHWYQQKPGSSPQLWIYSTSNLASGVPARFSGSGSGTSYSLTISSMEAEDAATYYCHQYHHSPYIYTFGGGTKLEIK | 0.71 | 0.807
KB001 mouse Fab FASEBA VH S56M (Fab, V domains shown) VH: EVQLKQSGPGLVAPSQSLSITCTVSGFSLSIYSVHWVRQPPGKGLEWLGMIWGGGMSDYNSALKSRLSISKDNSKSQVFLKMNSLQTDDTAMYYCARNGNFYAMDYWGQGTSVTVSS VL: QIVLTQSPAIMSASLGERVTMTCTASSSVSSSFLHWYQQKPGSSPQLWIYSTSNLASGVPARFSGSGSGTSYSLTISSMEAEDAATYYCHQYHHSPYIYTFGGGTKLEIK | 0.809 | 0.92
KB001 mouse Fab FASEBA VH S57R (Fab, V domains shown) VH: EVQLKQSGPGLVAPSQSLSITCTVSGFSLSIYSVHWVRQPPGKGLEWLGMIWGGGSRDYNSALKSRLSISKDNSKSQVFLKMNSLQTDDTAMYYCARNGNFYAMDYWGQGTSVTVSS VL: QIVLTQSPAIMSASLGERVTMTCTASSSVSSSFLHWYQQKPGSSPQLWIYSTSNLASGVPARFSGSGSGTSYSLTISSMEAEDAATYYCHQYHHSPYIYTFGGGTKLEIK | 0.796 | 0.905
KB001 mouse Fab FASEBA VH S57H (Fab, V domains shown) VH: EVQLKQSGPGLVAPSQSLSITCTVSGFSLSIYSVHWVRQPPGKGLEWLGMIWGGGSHDYNSALKSRLSISKDNSKSQVFLKMNSLQTDDTAMYYCARNGNFYAMDYWGQGTSVTVSS VL: QIVLTQSPAIMSASLGERVTMTCTASSSVSSSFLHWYQQKPGSSPQLWIYSTSNLASGVPARFSGSGSGTSYSLTISSMEAEDAATYYCHQYHHSPYIYTFGGGTKLEIK | 0.8 | 0.91
KB001 mouse Fab FASEBA VH S57M (Fab, V domains shown) VH: EVQLKQSGPGLVAPSQSLSITCTVSGFSLSIYSVHWVRQPPGKGLEWLGMIWGGGSMDYNSALKSRLSISKDNSKSQVFLKMNSLQTDDTAMYYCARNGNFYAMDYWGQGTSVTVSS VL: QIVLTQSPAIMSASLGERVTMTCTASSSVSSSFLHWYQQKPGSSPQLWIYSTSNLASGVPARFSGSGSGTSYSLTISSMEAEDAATYYCHQYHHSPYIYTFGGGTKLEIK | 0.748 | 0.85
KB001 mouse Fab FASEBA VH S57T (Fab, V domains shown) VH: EVQLKQSGPGLVAPSQSLSITCTVSGFSLSIYSVHWVRQPPGKGLEWLGMIWGGGSTDYNSALKSRLSISKDNSKSQVFLKMNSLQTDDTAMYYCARNGNFYAMDYWGQGTSVTVSS VL: QIVLTQSPAIMSASLGERVTMTCTASSSVSSSFLHWYQQKPGSSPQLWIYSTSNLASGVPARFSGSGSGTSYSLTISSMEAEDAATYYCHQYHHSPYIYTFGGGTKLEIK | 0.843 and 0.849 | 0.958 and 0.965
KB001 mouse Fab FASEBA VH D58S (Fab, V domains shown) VH: EVQLKQSGPGLVAPSQSLSITCTVSGFSLSIYSVHWVRQPPGKGLEWLGMIWGGGSSSYNSALKSRLSISKDNSKSQVFLKMNSLQTDDTAMYYCARNGNFYAMDYWGQGTSVTVSS VL: QIVLTQSPAIMSASLGERVTMTCTASSSVSSSFLHWYQQKPGSSPQLWIYSTSNLASGVPARFSGSGSGTSYSLTISSMEAEDAATYYCHQYHHSPYIYTFGGGTKLEIK | 0.646 | 0.817
KB001 mouse Fab FASEBA VH D58G (Fab, V domains shown) VH: EVQLKQSGPGLVAPSQSLSITCTVSGFSLSIYSVHWVRQPPGKGLEWLGMIWGGGSSGYNSALKSRLSISKDNSKSQVFLKMNSLQTDDTAMYYCARNGNFYAMDYWGQGTSVTVSS VL: QIVLTQSPAIMSASLGERVTMTCTASSSVSSSFLHWYQQKPGSSPQLWIYSTSNLASGVPARFSGSGSGTSYSLTISSMEAEDAATYYCHQYHHSPYIYTFGGGTKLEIK | 0.778 | 0.984
KB001 mouse Fab FASEBA VH Y59K (Fab, V domains shown) VH: EVQLKQSGPGLVAPSQSLSITCTVSGFSLSIYSVHWVRQPPGKGLEWLGMIWGGGSSDKNSALKSRLSISKDNSKSQVFLKMNSLQTDDTAMYYCARNGNFYAMDYWGQGTSVTVSS VL: QIVLTQSPAIMSASLGERVTMTCTASSSVSSSFLHWYQQKPGSSPQLWIYSTSNLASGVPARFSGSGSGTSYSLTISSMEAEDAATYYCHQYHHSPYIYTFGGGTKLEIK | 0.648 | 0.819
KB001 mouse Fab FASEBA VH Y59T (Fab, V domains shown) VH: EVQLKQSGPGLVAPSQSLSITCTVSGFSLSIYSVHWVRQPPGKGLEWLGMIWGGGSSDTNSALKSRLSISKDNSKSQVFLKMNSLQTDDTAMYYCARNGNFYAMDYWGQGTSVTVSS VL: QIVLTQSPAIMSASLGERVTMTCTASSSVSSSFLHWYQQKPGSSPQLWIYSTSNLASGVPARFSGSGSGTSYSLTISSMEAEDAATYYCHQYHHSPYIYTFGGGTKLEIK | 0.744 | 0.941
